Data on 1 substance can be found in PMC8741891.

This assay concerns the target Escherichia coli heat-labile enterotoxin holotoxin (human enterotoxigenic strain PE0415), nicked and reduced (E. coli (human enterotoxigenic strain PE0415)) (UniProt P43530). The assay can be described thus: ELISA; […] (1 ug/mL) […] (20 ug/mL, […]) for 1 h at 37 C; […].

With “protein disulfide isomerase, reduced (from UniProt P07237 18-508) (enzyme)”, the percent of A1 released from the holotoxin by PDI was 7%.
